The source of these data is article PMC10941009, “Structural basis for specific DNA sequence recognition by the transcription factor NFIL3” (The Journal of Biological Chemistry, 2024).

The target of one data set is T1, NFIL3 bZIP (long) (human, UniProt Q16649 65-161).
T1 sequence: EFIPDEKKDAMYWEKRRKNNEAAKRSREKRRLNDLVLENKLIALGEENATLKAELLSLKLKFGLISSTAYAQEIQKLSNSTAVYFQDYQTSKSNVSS
The data set is described as follows: ITC; ITC: 20 mM Tris pH 7.5, 150 mM NaCl, 25 °C; EMSA: same buffer, 4 °C, 6% native gel in 0.5x TBE. The settings on record: protein: recombinant, tags: His6-SUMO removed by TEV, chain copies: 2, blunt. On the technique in general: ITC needs no label: the signal is the heat of the interaction.

In the next data set the target is C/EBPζ bZIP (human, UniProt P35638 88-162). Described as above. The settings on record: protein: recombinant; tags: His6-SUMO removed by TEV; chain copies: 2; blunt.
A further data set addresses C/EBPβ bZIP (human, UniProt P17676 259-336). Described as above. The settings on record: protein: recombinant; tags: His6-SUMO removed by TEV; chain copies: 2; blunt.
Another data set deals with C/EBPα bZIP (human, UniProt P49715 281-340). Described as above. The settings on record: protein: recombinant; tags: His6-SUMO removed by TEV; chain copies: 2; blunt.
The target of a further data set is T2, NFIL3 bZIP (short) (human, UniProt Q16649 65-136).
T2 sequence: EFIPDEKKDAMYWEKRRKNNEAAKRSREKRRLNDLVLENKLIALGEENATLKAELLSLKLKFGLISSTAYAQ
The data set is described as above. The settings on record: protein: recombinant; tags: His6-SUMO removed by TEV; chain copies: 2; blunt.

Data set [1] concerns the molecule itself. The data set can be described thus: SEC; gel filtration chromatography of the recombinant C/EBPζ bZIP domain; conditions not told for this protein. On the technique in general: In gel filtration, larger molecules generally elute earlier.
Data set [2] deals with the molecule itself. The data set is described as follows: SEC; Superdex 200 10/300 GL, 20 mM Tris pH 7.5, 150 mM NaCl; NFIL3 bZIP domain WT 2 mg/ml apo and NFIL3 mutants, against protein standard.

The term Kd denotes a measure of binding affinity in units of concentration. A word on the stoichiometry N: it is the number of molecules, sites or subunits per partner or assembly.

Sequence of C/EBPβ bZIP (P17676 259-336): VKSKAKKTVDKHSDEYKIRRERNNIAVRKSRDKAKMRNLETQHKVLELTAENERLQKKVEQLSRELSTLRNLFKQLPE
Sequence of C/EBPα bZIP (P49715 281-340): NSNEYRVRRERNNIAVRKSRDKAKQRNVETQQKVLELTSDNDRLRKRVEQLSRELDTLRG

B1: cTACGTAA (dsDNA)
DNA 1: CACTACGTAATG
DNA 2: CATTACGTAGTG
Turning to B1, the Kd with NFIL3 bZIP (long) is 2430 ± 150 nM.

B2: ccgCGTAA (dsDNA)
DNA 1: CACCGCGTAATG
DNA 2: CATTACGCGGTG
Turning to B2, in the data set with NFIL3 bZIP (long), the Kd came to 6890 ± 340 nM.

B3: TGATGTAA (dsDNA)
DNA 1: GATGATGTAATC
DNA 2: GATTACATCATC
Turning to B3, the binding result with C/EBPζ bZIP is reported as “no binding”.

B4: TTACGTAA (dsDNA)
DNA 1: CATTACGTAATG
DNA 2: CATTACGTAATG
Consider B4, for which the Kd with C/EBPβ bZIP worked out at 18 ± 3 nM; with NFIL3 bZIP (long), 42 ± 7 nM; with C/EBPα bZIP it was 350 ± 30 nM; in the data set with NFIL3 bZIP (short), 52 ± 17 nM. Further, the binding result with C/EBPζ bZIP is recorded as “no binding”.

B5: TTGCGCAA (dsDNA)
DNA 1: CATTGCGCAATG
DNA 2: CATTGCGCAATG
Turning to B5, the results for the Kd in the data set with C/EBPβ bZIP, in the data set with NFIL3 bZIP (long) and with C/EBPα bZIP were 69 ± 9 nM, 810 ± 70 nM and 480 ± 70 nM, respectively. Further, the binding result in the data set with C/EBPζ bZIP is “no binding”.

B6: TTAaGTAA (dsDNA)
DNA 1: CATTAAGTAATG
DNA 2: CATTACTTAATG
For B6, the Kd in the data set with NFIL3 bZIP (long) turned out to be 120 ± 10 nM.

B7: TTAtGTAA (dsDNA)
DNA 1: CATTATGTAATG
DNA 2: CATTACATAATG
Turning to B7, the Kd with NFIL3 bZIP (long) came out at 520 ± 30 nM.

B8: C/EBPζ bZIP domain (aa 88-162) (domain or fragment, human, UniProt P35638 88-162, looked up)
chain: SSLAQEEEEEDQGRTRKRKQSGHSPARAGKQRMKEKEQENERKVAQLAEENERLKQEIERLTREVEATRRALIDR
notes: human C/EBPζ, bZIP domain, residues 88-162; source: E. coli BL21 (DE3), purified (Ni-NTA, TEV, anion exchange, gel filtration); not shown: His6, N-terminal, cleaved; SUMO, N-terminal, cleaved
Take B8: in data set [1], the “stoichiometry N” value is 2.

B9: NFIL3 bZIP domain (aa 65-161) (domain or fragment, human, UniProt Q16649 65-161, looked up)
chain: EFIPDEKKDAMYWEKRRKNNEAAKRSREKRRLNDLVLENKLIALGEENATLKAELLSLKLKFGLISSTAYAQEIQKLSNSTAVYFQDYQTSKSNVSS
notes: human NFIL3, bZIP domain, residues 65-161 (canonical bZIP helix aa 73-126 and an extra short helix aa 131-146); The methods of the size-exclusion run say only 'NFIL3 bZIP domain WT'; also called E4BP4; nuclear factor interleukin-3 regulated protein; source: E. coli BL21 (DE3), purified (Ni-NTA, TEV, anion exchange, gel filtration); not shown: His6, N-terminal, cleaved; SUMO, N-terminal, cleaved
On to B9, for which, in data set [2], the “stoichiometry N” value turned out to be 2.

B10: NFIL3 bZIP domain N112D mutant (domain or fragment, human, UniProt Q16649 65-161, looked up)
chain: EFIPDEKKDAMYWEKRRKNNEAAKRSREKRRLNDLVLENKLIALGEEDATLKAELLSLKLKFGLISSTAYAQEIQKLSNSTAVYFQDYQTSKSNVSS
notes: human NFIL3, bZIP domain, residues 65-161 with N112D; also called NFIL3 (N112D); source: E. coli BL21 (DE3), purified as the wild-type protein; not shown: His6, N-terminal, cleaved; SUMO, N-terminal, cleaved
On to B10, for which the “stoichiometry N” value in data set [2] was determined as 2.

B11: T/G mismatch TTAt (dsDNA)
DNA 1: CATTATGTAATG
DNA 2: CATTACGTAATG
modifications: T/G mismatch at position 6 of strand 1
For B11, in the data set with NFIL3 bZIP (long) (one T/G mismatch), the Kd amounted to 290 ± 30 nM.

B12: TcACGTAA (dsDNA)
DNA 1: CATCACGTAATG
DNA 2: CATTACGTGATG
Regarding B12, in the data set with NFIL3 bZIP (long), the Kd turned out to be 1660 ± 110 nM.

B13: mutated flanking DNA (dsDNA)
DNA 1: CGTTACGTAATG
DNA 2: CATTACGTAACG
For B13, the Kd with NFIL3 bZIP (long) was found to be 67 ± 14 nM.

B14: TTAmCGTAA (dsDNA)
DNA 1: CATTACGTAATG
DNA 2: CATTACGTAATG
modifications: 5-methyl-C at position 6 of the printed strand; second strand not printed (palindrome, methylation of it not stated)
Take B14: the Kd in the data set with NFIL3 bZIP (long) turned out to be 590 ± 89 nM.

B15: TTgCGTAA (dsDNA)
DNA 1: CATTGCGTAATG
DNA 2: CATTACGCAATG
B15: the Kd with NFIL3 bZIP (long) was 180 ± 20 nM.
